# B1: PanLipΔN (Pseudonocardia alni) (protein)
# chain: TLPDETFGPVDRPGPALSVPPDQLDAAVRCSANATDADRDVALFVPGTTLTPEVNFGFNWFAALDDLGRPYCSVTLPNNAMTDTQIAAEYVVHAIRHVHGISGRKVDVLGHSQGGTEPRFALRFWPDLRGMVDDYVAFGTTNHGSIAINAALCTPATGCAEALWQQTLNSHYTQAMNSYQETFAGISYTQIYTRTDEFVQPNLDDSGTTSLHGGGGEISNVALQDVCLTEAASEHIAVGTYSPVAYALATDALDHDGPADPARVDRGVCTQVFMPGVDPLTFPTDYAATLGLIANQLALAPRVGSEPELRPYTLADDRQG
# notes: Signal peptide (30 residues) and proline-rich putative propeptide (27 residues) removed; ~first 57 residues missing (methods say first 27 of full-length); starts at TLPDE by primer; ends KQNLLE; pET-28a(+) NdeI/XhoI, His tag; codon-optimized; E. coli SHuffle T7 Express; Ni-NTA purified; Precursor length printed as both 324 and 377 residues
# Experiments:
# [1] = substrate: CC(=O)Oc1ccc([N+](=O)[O-])cc1; assay: p-nitrophenol release, initial rates, nonlinear Michaelis-Menten fit; assay type: biochemical, Pseudonocardia alni; conditions: 100 mM Tris-HCl pH 7.4, 100 mM NaCl, 25 °C
# [2] = substrate: CCCC(=O)Oc1ccc([N+](=O)[O-])cc1; assay: as above; assay type: biochemical, Pseudonocardia alni; conditions: 100 mM Tris-HCl pH 7.4, 100 mM NaCl, 25 °C
protein,measurement,setting,value
B1,Km,[1],66.8 ± 18.5 µM
same,kcat,[1],16.2 ± 1.8 s⁻¹
same,Km,[2],2830 ± 1560 µM
same,kcat,[2],9.7 ± 1.8 s⁻¹

# From PMC12734981, “A CALB-like Cold-Active Lipolytic Enzyme from Pseudonocardia antarctica: Expression, Biochemical Characterization, and AlphaFold-Guided Dynamics” (Marine Drugs, 2025)
